Experimental data reported in the DeepSol protein solubility set.

Assay: soluble on expression in E. coli; label from the status in PepcDB or PDB records

| Sequence | soluble on expression in E. coli |
| --- | --- |
| MTKSLFRQSFLFDSLDLDHPMVAQTVRTEQGVTLKLHQRGVLEVIPAQTDAATKNMVISCGIHGDETAPMELLDKWIDDIVSGFQPVAERCLFIMAHPQATVRHVRFIEQNLNRLFDDKPHTPSTELAIADNLKVLLRQFFANTDEHSRWHLDLHCAIRGSKHYSFAVSPKARHPVRSRSLMQFIEQAHIEAVMLSNAPSSTFSWYSAEHYAAQALTLELGQVARLGENLLDRLLAFDLAMRDLISRHKPEHLPRKSVMYRVSRTIVRLHDDFDFRFSDDVENFTAFMHGEVFGHDGDKPLMAKNEGEAIVFPNRKVAIGQRAALMVCKVNTRYEDDQLVYDLEHHHHHH | soluble |
| AIREFNTKEKVFNEFTAVFDVLNHLPAFAKLHLANSMSVRYANTLGISQRNAEVFANRGTSGIDGVISTAYGYALKTSQLVTIITGDLAFFYDRNAFWNNYKPSNLRVVLLNNHGGGIFRMIDGPSALPELDELFETKQTLSARYLATEHGLEYTLCKNLNGLNQALESFFQPSMFGKILEIETDSVKN | not soluble |
| MSLNKQDKKWRVLVVDDDADVLTNTVYTLMDLKVLGRELDITTLGSATAAIELLERERDFAVILLDVVMEKPHAGLSLVTMIRHDFNMQMSRIILRTGNPGYAPERDITLKLEIDDYILKQTAVRDRIITAVIVAIRAYDQLQRLARLKDAMQQIICCSNQLLTTDEIDQFANVCMQYVAPIFGKNAGGGLAYAGMTVNQGIVPLTVMSATSEHESLIEPLNGIGVLPPNISVTKKKMTKALEQTNSIKTDKDWYIYIKVSLGRKVVLWLNKPDGFDEIDETLGKSFANTIKACLDREGHHHHHH | soluble |
| RKWAEDNEVQNCMACGKGFSVTVRRHHCRQCGNIFCAECSAKNALTPSSKKPVRVCDACFNDLQG | soluble |
| MGSDKIHHHHHHMARKDKIVTPSVTQKLQSLGYNVADWDDSKTTSKLTDEIITVLKKASKSENGNEGYPDRIYCNKKKKLLILVEEKPTMQEHNIESIKSGCIAGLKWYLKQFLSEKFSSWKIIGIAVSGDLSDQYKHKFSCFLIDKQKISLAENVNNFLKENEFIALFNNIDEEKAISKVTKVSKKINKLLRSIDSQKRPIILAALMISLYRSEKYDNNFPDIYENYNSEQILNNIYPTVKNILTAEDVPEEKLKSLELELNSINQDPSLKNTNILKEILKELDENIIQLFNDTFSTTSNYDIMGKFYEEFLRFAGVSNVKKGIVLTPRHIATLFTKLIPFKKNDKILDLCCGTGAFLIAGMNKLLSLKGIDAQNVKSNQLLGFEINPTMYICAISNMLFRGDGKSKIYNMDSINDDKVNKIISESAPTIGFINPPYSGKENKEDPTPKEITFLKKC | not soluble |
| MNLLQCYPTTTVDEMNCEEWGNGTESTQSVAACQGCIELRKEVTDLRQAVNLILPMLPLYPTIGNGFNATGLAAQPTLQHVIQQSLLRKRPVAQTPTVPQPECPGQIRPVLSSPAAALQNVIMLNPWIMGSSLKPASPTLPNGQIPTTIGETSLQGTDDQTVKWIGPSSVDSNGQKTDSSAASAGDNQNIDVIGDGSESPTSSNHSAQEIALMTSQQTFLNALKDSSFLFTNPVPTVETAPPLRVAPPINGTTNGTAKAGGPERKPRKPVNDDIVKIVRNQDLSEENISMFEIPVPKAIASDPTFRPVSEQQIIQQIIQGKKYEEMEVGECMIQLCKKLAEKRVFGPRLMSQTTVAGLNHSNYANLPIKGICYIQHVCRKVLYDKFENEEDFWDKFREAMRKLAARCRRVRHAKKTKHNREEAQAEMLSKRYGEDMPFNLNGAGLIRPKVETVSPEANILNSDQIKSQLESLFAHIPKTESETPLIEIIQQNISLFTHLIRTKVESQSPPLQGPQ | not soluble |
| PNARSQPSKTLFVKGLSEDTTEETLKESFDGSVRARIVTDRETGSSKGFGFVDFNSEEDAKAAKEAMEDGEIDGNKVTLDWAKPKGEGG | soluble |
| MSLSRLSEKKGFNFNIIKNDPLDGHKGTNIGSISLDNIAPVFIDIENQKAFVDIGGMHARAEVEKGVKWITDKSQVEGEEAKAYWLCWVTTERSEQGPYYAGVTACYLLVNKSIRRGYKSMPEHVNMMDKSMKHQFIIDQIGDDNKQILKEFLQNHNVEMWNNSSEELYRTFEEGHHHHTTDPNSSSVDKLAAALEHHHHHH | soluble |
| MGSDKIHHHHHHALICNSAVTTTASTLYSWHQVRNTLAIMFNKRHIERHQLPCVLKVFNRFTGQEIGQLGNASENGLMVISQLPVLVGPDYELQLRMPLPGGGHQFVNLTASCLWCREDQTPGHYDSGFMLLQSPREYDDFVRSLRDYFSFRPANAPV | not soluble |
| MASDDEEDFTQLQINQNRKHKKAGGWQQIGLDHSVYKAIEKKGFNQPTPIQRKTIPCIMDGKDVVAMSRTGSGKTAAFVIPMLQKLKRRDTTGIRALMVSPTRELALQTFKVVKELGRFTGLRCACLVGGDQIEEQFSTIHENPDILLATPGRLLHVIVEMDLRLSYVQYVVFDEADRLFEMGFQDQLTETLKRIPESRQTLLFSATLPKMLVDFAKAGLTDPMLVRLDVDEKVSDKLSMVFCMCRPDEKLFALLHLCRNFCFKKLLETSLKKCKISKKKVPLLKKVRMDRENKQTVVFCATMKHVEYVVGILHRAGIDCSFVYSQLDATARKMNIQKFHEKQNNILVVTDVAARGVDIPLLDTVINLHFPPKAKLFVHRVGRVARAGRSGTAISLIANDELPYLTDLFMFLGKPINFASDKSEYKEDETLIGRVPDSIVSLETEFFHSIHDNNEDMQDLRQKATNAMMKYTRTRPPPSAESARRVKQDIRTDSVECAPHPFLKADGDKQSNDILNKISQYKSRNTIFEMNKSQKSQALAVMQAKRKAHEPRISTVTEEKRKQKEEKEQQQKSTDIAVEIAEKTVENAGEDELAEVFGTVIGSTKHTEKSEEKGGKKRKIGTGKRIDRAEQMKFEREKHYVPYMSSDHVAERHLALDTVDFARQAEGASVDIIMDDDRGMYQQKHGQRWDRRLKKYVGLSGGNEPANKKIRTEDGTWLPASYKTGKYEDWKQKQKIGFKKSDGGGDDGDNEGSGGMDRKRKWKMEKPKGGPKHSELKNKEQILKGRRKQEQLENYMEHRRQSNLKKKAEHLGRGGAGGARGGARGGARGGARGGSSRGARGGARGGGKFGNRR | not soluble |
| MSNTPIELKGSSFTLSVVHLHEAEPEVIRQALEDKIAQAPAFLKHAPVVINVSGLESPVNWPELHKIVTSTGLRIIGVSGCKDASLKVEIDRMGLPLLTEGKEKAVRPAPVEPATPSEPPQNANPITKTRLIDVPVRSGQRIYAPQCDLIVTSHVSAGAELIADGNIHVYGMMRGRALAGASGDREAQIFCTHLTAELVSIAGVYWLSDKIPAEFYGKAARLRLADNALTVQPLN | not soluble |
| EVQLQQSGAELVRPGALVKLSCKASGFNIKDYYMHWVKQRPEQGLELIGWIDPENGNTIYDPKFQDKASITADTSSNTAYLQLSSLTSEDTAVYYCARDTAAYFDYWGQGTTLTVSSAKTTPPSVYPLAPGSAAQTNSMVTLGCLVKGYFPEPVTVTWNSGSLSSGVHTFPAVLQSDLYTLSSSVTVPSSTWPSETVTCNVAHPASSTKVDKKKIP | soluble |
| MAANGVATLNSSGKLAQMPSASDVGALPITGGEMQGALKLKANQYGGSGPADEKYALDCQNSNIVNVNRILTADPAGSASEGWGFQREDDPDAYDVIWASNGTLYFTPGFKYNTPPYPANQRVLATTDNIALTNYLRQEYNKLKESEGTPTLNDIINGFGFCYNDSSNGAGLDGTYLTVSGMLDNKYRLQLLGQYNGSNWLAYRTRNGDEQSWNPWHKVLTDNINAAISARHQYTSSSYPQIYGNGILQLGGDSRNEYGVVLRSNGTDEANAFRPSVNAGTTGHLYLGVANQKWRAVFAQNGTIQTSDRNAKHDITDLDPEKITAFIMGLKPSSYVFNDADSGRTHWGLISQDIEELFPQLGMTSMDFAGFIKSPKTEDYYEDVPETVTDEETGEEKTVTRKELKTRTVEGEYIYSLRYDEFIAPLICMVQRQQRQIEYLERRLSASESKEEAKLEHHHHHH | not soluble |
| PGSMTVTQSQLELLIRNAFPEAEITVTSLVGDNNHYSIKVISSQFQGKSKLEQHRMIYKVLDGLNIHAIQIQTGCK | soluble |
| MAHHHHHHMPPKGFKSNVSPEEAIAARKEKVELLSQQCAAVEKMLSICTDQGLRLNAEIAELERRIAETEVLTEQASRDLDVTVKIVTSYATSNLDQLQQRRLNMEKTAHEAEAENEALRAKIAELTGRREAEIEQWEARVEEQQALMNQKALDFGMQLKETLARRYATV | not soluble |
